In patent US20090226442A1 (published 2009):
Where two headings read alike, the source gives them in different places.

T1: soluble cynomolgus (Macaca fascicularis) RON protein (cynomolgus (Macaca fascicularis), UniProt A0A2K5VT07 25-571)
T1 chain: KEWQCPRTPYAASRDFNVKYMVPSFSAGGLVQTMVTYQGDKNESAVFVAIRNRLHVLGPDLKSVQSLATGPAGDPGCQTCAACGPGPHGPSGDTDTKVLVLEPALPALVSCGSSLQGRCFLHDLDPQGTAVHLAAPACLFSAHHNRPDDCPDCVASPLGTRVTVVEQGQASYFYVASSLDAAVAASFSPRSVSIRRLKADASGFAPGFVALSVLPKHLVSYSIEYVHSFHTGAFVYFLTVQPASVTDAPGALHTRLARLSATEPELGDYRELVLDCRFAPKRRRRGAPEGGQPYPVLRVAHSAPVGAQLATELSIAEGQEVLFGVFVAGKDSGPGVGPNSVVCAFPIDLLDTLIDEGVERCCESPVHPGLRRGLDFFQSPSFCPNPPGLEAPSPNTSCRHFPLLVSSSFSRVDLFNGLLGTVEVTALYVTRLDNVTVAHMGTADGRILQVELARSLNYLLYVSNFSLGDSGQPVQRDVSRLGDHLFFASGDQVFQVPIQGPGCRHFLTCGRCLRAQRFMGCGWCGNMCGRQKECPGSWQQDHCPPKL


Tests used:
[1] = target: human RON (recepteur d'origine nantais, MST1R), full length, expressed on cells (UniProt Q04912 25-1400); test: FACS
[2] = target: T2, soluble human RON protein (R&D Systems, catalog 1947) (UniProt Q04912 25-571); test: ELISA
[3] = target: T1, soluble cynomolgus (Macaca …); test: ELISA; 4-P fit C
[4] = target: T2, soluble human RON protein (R&D Systems, …); test: ELISA; 4-P fit C
[5] = target: T1, soluble cynomolgus (Macaca …); test: ELISA; 4-P fit C
[6] = target: T2, soluble human RON protein (R&D Systems, …); test: ELISA; 4-P fit C; remark: listed apart in the source

Chain of human RON (recepteur d'origine nantais, MST1R), full length, expressed on cells (Q04912 25-1400): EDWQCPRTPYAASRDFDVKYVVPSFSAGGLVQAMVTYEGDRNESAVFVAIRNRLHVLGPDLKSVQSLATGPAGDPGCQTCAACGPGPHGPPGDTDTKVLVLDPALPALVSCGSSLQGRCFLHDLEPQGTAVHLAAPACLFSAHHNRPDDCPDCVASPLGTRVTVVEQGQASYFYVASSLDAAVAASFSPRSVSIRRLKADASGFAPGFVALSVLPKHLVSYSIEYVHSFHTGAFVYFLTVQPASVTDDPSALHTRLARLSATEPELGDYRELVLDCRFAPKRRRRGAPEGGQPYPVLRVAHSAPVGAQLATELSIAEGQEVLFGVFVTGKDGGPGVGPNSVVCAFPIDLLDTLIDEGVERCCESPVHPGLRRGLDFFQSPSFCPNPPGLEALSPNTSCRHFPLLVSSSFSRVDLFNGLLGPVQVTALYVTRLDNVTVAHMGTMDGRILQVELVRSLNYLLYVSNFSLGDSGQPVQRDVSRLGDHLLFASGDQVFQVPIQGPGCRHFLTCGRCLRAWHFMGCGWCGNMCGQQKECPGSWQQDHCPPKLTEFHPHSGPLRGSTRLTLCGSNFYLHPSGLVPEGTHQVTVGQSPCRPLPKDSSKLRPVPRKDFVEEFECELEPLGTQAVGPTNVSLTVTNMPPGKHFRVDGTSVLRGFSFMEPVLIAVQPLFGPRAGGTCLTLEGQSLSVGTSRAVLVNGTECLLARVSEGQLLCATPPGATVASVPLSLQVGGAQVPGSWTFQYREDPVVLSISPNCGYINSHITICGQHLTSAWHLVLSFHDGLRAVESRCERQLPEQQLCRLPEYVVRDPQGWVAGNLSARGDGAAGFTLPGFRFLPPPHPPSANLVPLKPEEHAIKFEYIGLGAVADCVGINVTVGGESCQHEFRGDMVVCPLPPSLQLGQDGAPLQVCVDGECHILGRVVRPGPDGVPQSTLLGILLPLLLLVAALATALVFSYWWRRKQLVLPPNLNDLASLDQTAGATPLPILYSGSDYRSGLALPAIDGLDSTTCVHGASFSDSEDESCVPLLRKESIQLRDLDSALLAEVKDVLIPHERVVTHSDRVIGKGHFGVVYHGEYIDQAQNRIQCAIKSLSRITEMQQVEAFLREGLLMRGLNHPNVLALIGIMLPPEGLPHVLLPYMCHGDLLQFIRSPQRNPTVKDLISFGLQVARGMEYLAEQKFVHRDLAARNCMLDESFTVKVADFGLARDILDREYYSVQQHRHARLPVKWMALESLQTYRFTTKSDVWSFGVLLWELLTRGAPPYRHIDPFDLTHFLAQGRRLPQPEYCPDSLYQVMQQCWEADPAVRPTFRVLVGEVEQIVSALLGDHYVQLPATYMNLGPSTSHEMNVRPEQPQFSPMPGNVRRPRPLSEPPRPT
T2 sequence (Q04912 25-571): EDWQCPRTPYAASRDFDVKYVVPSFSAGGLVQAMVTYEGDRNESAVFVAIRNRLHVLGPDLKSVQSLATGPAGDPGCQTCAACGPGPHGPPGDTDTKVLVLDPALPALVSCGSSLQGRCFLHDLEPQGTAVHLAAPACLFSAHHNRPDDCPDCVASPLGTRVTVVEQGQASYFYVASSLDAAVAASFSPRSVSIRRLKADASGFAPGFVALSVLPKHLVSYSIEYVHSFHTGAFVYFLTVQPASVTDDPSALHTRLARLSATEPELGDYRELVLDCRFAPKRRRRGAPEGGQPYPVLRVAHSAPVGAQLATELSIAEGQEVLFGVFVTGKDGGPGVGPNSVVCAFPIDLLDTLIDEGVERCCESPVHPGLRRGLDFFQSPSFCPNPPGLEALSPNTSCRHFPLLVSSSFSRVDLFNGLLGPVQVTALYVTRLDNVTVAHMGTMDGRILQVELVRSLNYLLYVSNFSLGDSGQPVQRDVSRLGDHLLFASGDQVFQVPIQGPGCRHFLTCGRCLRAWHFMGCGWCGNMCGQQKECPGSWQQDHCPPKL

Binder | EC50 [1] [µg/mL] | EC50 [2] [µg/mL] | EC50 [3] [µg/mL] | EC50 [4] [µg/mL] | EC50 [5] [µg/mL] | EC50 [6] [µg/mL]
1P3B2 murine monoclonal anti-RON antibody (antibody, V domains shown) VH: EVQLQQSGPELEKPGASVKISCKASGYSFTGYNMNWVKQSNGESLEWIGDIDPYYGGTRYNQKFKGKATLTVDKSSSTAYMQLKSLTSEDSAVYYCAREGRGFAYWGQGTLVTVSA VL: DIQMTQSPASLSASVGETVTITCRASENIYSYLAWYQKKQGKSPQLLVYNAKTSVEGVPSRFSGSGSGIQFSLKINSLQPEDFGSYYCHCQHHYGTLPTFGGGTKLEIK | 0.006 | 0.011 | 0.01 |  |  | 
1P4A3 murine monoclonal anti-RON antibody (antibody, V domains shown) VH: EVQLQQSGPELEKPGASVMISCKASGYSFTGYNMNWVKQSTGKSLEWIGDIDPYYDGTRYNQKFKGKATLTADKSSSTAYMQLKSLTSEDSAVYYCTREGRGFAYWGQGTLVTVSA VL: DIQMTQSPASLSASVGETVTITCRASENIYSYLAWYQQKQGKSPQLLVYNAKTLAGGVPSRFSGSGSGTQFSLKINSLQPEDFGSYYCQHYYGTPLTFGAGTKLELK | 0.011 | 0.018 | 0.003 | 0.003 |  | 
1P5B10 murine monoclonal anti-RON antibody (antibody, V domains shown) VH: EVQLQQSGPELVKPGASMKISCRAAGFSFTGYTMNWVKQSHGKSLEWIGLINLNNGGTSHNQKFKGKATLTVDKSSSTAYMELLSLTSEDSAVYYCARWLRRGGYAMDYWGQGISVTVSS VL: DILLTQSPAILSVSPGERVSFSCRASQNIGTSIHWYQQRTNGSPRLLIKYASESISGIPSRFSGSGSGTDFTLSINSVESEDIADYYCQQSDSWPLTFGAGTKLELK | 0.051 | 0.013 | 0.002 | 0.001 |  | 
1P4A12 murine monoclonal anti-RON antibody (antibody, V domains shown) VH: EVQLQQSGPELVKPGASMKISCKASGYSFTGYTMNWVKQSHGKKLEWIGLINPYNGGTIYNQKFKGKATLTVDKSSSTAYMELLSLTSEDSAVYYCARWLRRGGYAMDYWGQGASVTVSS VL: DILLTQSPAILSVSPGERVSFSCRASQSIGTSIHWYQQRTNGSPRLLIKFASESISGIPSRFSGSGSGTDFTLSINSVESEDIADYYCQQSDSWPLTFGAGTKLEVK | 0.01 | 0.016 | 0.005 | 0.002 |  | 
human macrophage stimulating protein (MSP) (R&D Systems cat. #4306-MS) (ligand) QRSPLNDFQVLRGTELQHLLHAVVPGPWQEDVADAEECAGRCGPLMDCRAFHYNVSSHGCQLLPWTQHSPHTRLRRSGRCDLFQKKDYVRTCIMNNGVGYRGTMATTVGGLPCQAWSHKFPNDHKYTPTLRNGLEENFCRNPDGDPGGPWCYTTDPAVRFQSCGIKSCREAACVWCNGEEYRGAVDRTESGRECQRWDLQHPHQHPFEPGKFLDQGLDDNYCRNPDGSERPWCYTTDPQIEREFCDLPRCGSEAQPRQEATTVSCFRGKGEGYRGTANTTTAGVPCQRWDAQIPHQHRFTPEKYACKDLRENFCRNPDGSEAPWCFTLRPGMRAAFCYQIRRCTDDVRPQDCYHGAGEQYRGTVSKTRKGVQCQRWSAETPHKPQFTFTSEPHAQLEENFCRNPDGDSHGPWCYTMDPRTPFDYCALRRCADDQPPSILDPPDQVQFEKCGKRVDRLDQRRSKLRVVGGHPGNSPWTVSLRNRQGQHFCGGSLVKEQWILTARQCFSSCHMPLTGYEVWLGTLFQNPQHGEPSLQRVPVAKMVCGPSGSQLVLLKLERSVTLNQRVALICLPPEWYVVPPGTKCEIAGWGETKGTGNDTVLNVALLNVISNQECNIKHRGRVRESEMCTEGLLAPVGACEGDYGGPLACFTHNCWVLEGIIIPNRVCARSRWPAVFTRVSVFVDWIHKVMRLG |  |  |  |  | 0.038 | 0.03
1P2E7 murine monoclonal anti-RON antibody (antibody, V domains shown) VH: DVQLQESGPGLVKPSQSLSLTCTVTGDSITSDYAWNWIRQFPGNKLEWMGYISYSGSTSYNPSLKSRFSITRDTSKNQFFLQLNSVTTEDSATYYCARGGFYYRYAGPGFAYWGQGTLVTVSA VL: not shown | 0.013 | 0.018 | 0.002 | 0.000736 |  | 
